Experimental data from patent US20250277022A1 (STAIDSON BEIJING BIOPHARMACEUTICALS, published 2025).
Residue numbers refer to the chain shown, from its start. Where two headings read alike, the source gives them in different places.

T1: human IL-7 (human, UniProt P13232 26-177)
T1 construct: also called TSLP homologous protein IL-7
T1 sequence (looked up): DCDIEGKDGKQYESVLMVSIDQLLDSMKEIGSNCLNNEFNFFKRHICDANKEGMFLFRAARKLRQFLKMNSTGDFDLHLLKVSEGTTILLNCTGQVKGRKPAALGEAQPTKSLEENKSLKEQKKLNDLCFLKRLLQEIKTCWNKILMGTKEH

B1: TSLP-0101 (antibody, V domains shown)
VH: QVQLQESGPGLVKPSETLSLTCAVSGYSISSGYGWSWIRQPPGKGLEWIGYISYYGSISYNPSLKSRVTISRDTSKNQFSLKLSSVTAADTAVYYCARTNLLYFDSWGQGTLVTVSS
VL: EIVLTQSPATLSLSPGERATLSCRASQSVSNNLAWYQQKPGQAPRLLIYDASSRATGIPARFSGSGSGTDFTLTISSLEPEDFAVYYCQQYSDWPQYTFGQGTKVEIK
B2: TSLP-0103 (antibody, V domains shown)
VH: B1 VH with A23T
VL: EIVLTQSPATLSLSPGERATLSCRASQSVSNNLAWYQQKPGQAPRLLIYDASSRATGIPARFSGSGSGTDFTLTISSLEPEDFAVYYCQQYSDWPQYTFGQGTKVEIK
B3: TSLP-0105 (antibody, V domains shown)
VH: B1 VH with R72V
VL: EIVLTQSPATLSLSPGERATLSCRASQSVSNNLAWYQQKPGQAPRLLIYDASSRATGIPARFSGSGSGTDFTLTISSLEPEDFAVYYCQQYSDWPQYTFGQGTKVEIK
B4: TSLP-0112 (antibody, V domains shown)
VH: B1 VH with I58T, S106Y
VL: EIVMTQSPATLSLSPGERATLSCRASQSVSSYLAWYQQKPGQAPRLLIYDASSRATGIPARFSGSGSGTDFTLTISSLEPEDFAVYYCQQYSDWPQYSFGQGTKVEIK
B5: TSLP-0109 (antibody, V domains shown)
VH: B1 VH with I58T, D105E
VL: B4 VL with S28G, V29I, S53N, R54L, A55Q, T56S, D93N
B6: TSLP-0106 (antibody, V domains shown)
VH: B1 VH with A23T, R72V
VL: B4 VL with S31N, Y32N, S98T
B7: TSLP-0111 (antibody, V domains shown)
VH: B1 VH with I52F, I58T
VL: B4 VL with Y32N, D93N
B8: TSLP-0108 (antibody, V domains shown)
VH: B1 VH with I58T
VL: B4 VL with S31N, Y32N, Q96E
B9: TSLP-0104 (antibody, V domains shown)
VH: B1 VH with R72V
VL: B4 VL with S31N, Y32N, S98T
B10: TSLP-0110 (antibody, V domains shown)
VH: B1 VH with I58T
VL: B4 VL with A51T, D93N
B11: TSLP-0102 (antibody, V domains shown)
VH: B1 VH with A23T
VL: B4 VL with S31N, Y32N, S98T
B12: TSLP-0201 (antibody, V domains shown)
VH: QVQLVQSGAEVKKPGSSVKVSCKASGFTFGSYGINWVRQAPGQGLEWMGVIVPLVGVTIYAEKFQGRVTITADTSTSTAYMELSSLRSEDTAVYYCARGQEYFYWYFDLWGQGTLVTVSS
VL: QSALTQPPSASGSPGQSVTISCSGSSSDIGGYNRVSWYQQHPGKAPKLMIYDVSKRPSGVPDRFSGSKSGNTASLTVSGLQAEDEADYYCSSYAGTDTFILFGGGTKLTVL
B13: TSLP-0208 (antibody, V domains shown)
VH: B12 VH with N35S, M48L, V52I, V55L, T58P, I59N, Q100A
VL: B12 VL with S23T, S26N, D52E, V53I, I100V
B14: TSLP-0206 (antibody, V domains shown)
VH: B12 VH with N35S, M48L, G56D
VL: B12 VL with S23T, S25T, S26I, D52E, I100V, L101F
B15: TSLP-0207 (antibody, V domains shown)
VH: B12 VH with N35S, M48L
VL: B12 VL with S23T, S25T, D52E, V53F, S54N, T98I, I100V
B16: TSLP-0205 (antibody, V domains shown)
VH: B12 VH with M48L
VL: B12 VL with S23T, S25T, S26T, D52E, I100A, L101I
B17: TSLP-0203 (antibody, V domains shown)
VH: B12 VH with M48L
VL: B12 VL with S23T, S25T, N33D, D52G, G95S, T96G, D97H, I100G
B18: TSLP-0204 (antibody, V domains shown)
VH: B12 VH with M48L
VL: B12 VL with S23T, S25T, D52E, S54N, P57S, S91T, I100V

Key:
human TSLP [1] = molecular target: T2, human TSLP (human, UniProt Q969D9 29-159); experiment: ELISA, plate coated with human TSLP, test antibodies as human IgG1
T2 construct: used biotinylated in some assays; also called hTSLP; recombinant human TSLP
T2 sequence (Q969D9 29-159 R127A/R130S limits assumed): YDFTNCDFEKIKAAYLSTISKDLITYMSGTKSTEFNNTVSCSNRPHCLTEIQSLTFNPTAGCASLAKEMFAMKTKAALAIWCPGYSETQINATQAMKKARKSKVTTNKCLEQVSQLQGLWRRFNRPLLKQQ
Protocol: (§1) ELISA Screening: Monoclonal scFv antibodies were selected and subjected to ligand binding assays. The first assay was designed to identify scFv antibodies that bound human TSLP and/or cynomolgus TSLP. Briefly, a 96-well plate was coated with human TSLP or cynomolgus TSLP in PBS at 0.1 μg/well and left overnight at 4° C. Before loading the scFv antibodies, the plates were washed with TBST, blocked for 1-2 hours at 37° C. using 5% milk and washed again with TBST. Each scFv sample was first diluted to 40 μg/mL, and 150 μL was added to the first row of wells. The 40 μg/mL scFv samples were then serially diluted at a 1:3 ratio and added to the remaining wells. After incubating for an hour at 37° C., followed by washing with TBST for 6 times, 100 μl of the secondary antibody (HRP labeled mouse anti-flag (1:2500)) was added to each well. After incubation for an hour under 37° C., the plate was washed for 3 times using TBST. TMB was then added at 100 μL/well and incubated for 10-20 minutes at 37° C. 2 M H₂SO₄ was used to stop the reaction. The ELISA results (OD405) were then analyzed and the binding curves were generated by PRISM.

cynomolgus monkey TSLP [2] = molecular target: T3, cynomolgus monkey TSLP (cynomolgus monkey, UniProt A0A7N9CAT7 29-159); experiment: ELISA, plate coated with cynomolgus monkey TSLP, test antibodies as human IgG1
T3 construct: also called cynomolgus TSLP; recombinant cynomolgus monkey TSLP
T3 sequence (A0A7N9CAT7 entry or part of it): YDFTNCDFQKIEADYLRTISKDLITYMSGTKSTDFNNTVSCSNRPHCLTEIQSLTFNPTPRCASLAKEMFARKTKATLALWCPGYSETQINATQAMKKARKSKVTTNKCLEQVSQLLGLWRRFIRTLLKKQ
Protocol: as §1

human TSLP [3] = molecular target: T2, human TSLP; experiment: cell-based or functional assay
human IL-7 = molecular target: T1, human IL-7; experiment: ELISA on human IL-7
TSLP-His = molecular target: T4, TSLP-His (human, UniProt Q969D9 29-159, limits assumed); experiment: HTRF competition: blocking of TSLP-his binding to HEK293-Flag-hTSLPR-IL7Ra cells, IgG1
T4 construct: also called his-tagged TSLP; not shown: His-tag
T4 sequence (Q969D9 29-159 R127A/R130S limits assumed): as the sequence (Q969D9 29-159 R127A/R130S limits assumed) above

human TSLP [4] = molecular target: T2, human TSLP; experiment: ELISA, plate coated with human TSLP, test antibodies as human IgG1; remark: listed apart in the source
Protocol: as §1

human TSLP [5] = molecular target: T2, human TSLP; experiment: cell-based or functional assay; remark: listed apart in the source
human TSLP [6] = molecular target: T2, human TSLP; experiment: cell-based or functional assay; remark: listed apart in the source
cynomolgus monkey TSLP [7] = molecular target: T3, cynomolgus monkey TSLP; experiment: ELISA, plate coated with cynomolgus monkey TSLP, test antibodies as human IgG1; remark: listed apart in the source
Protocol: as §1

human TSLP [8] = molecular target: T2, human TSLP; experiment: ELISA, plate coated with human TSLP, test antibodies as human IgG1; remark: listed apart in the source
Protocol: as §1

human TSLP [9] = molecular target: T2, human TSLP; experiment: cell-based or functional assay; remark: listed apart in the source
human TSLP [10] = molecular target: T2, human TSLP; experiment: ELISA, plate coated with human TSLP, test antibodies as human IgG1; remark: listed apart in the source
Protocol: as §1

cynomolgus monkey TSLP [11] = molecular target: T3, cynomolgus monkey TSLP; experiment: ELISA, plate coated with cynomolgus monkey TSLP, test antibodies as human IgG1; remark: listed apart in the source
Protocol: as §1

| Binder | EC50 (read off the curve) (human TSLP [1]) [µg/mL] | EC50 (read off the curve) (cynomolgus monkey TSLP [2]) [µg/mL] | IC50, inhibition of human TSLP-induced Stat5 activation (Stat5-luciferase reporter, Ba/F3 cells with hTSLPR and hIL7Ra) (human TSLP [3]) [µg/mL] | IC50, inhibition of human TSLP-induced Stat5 activation (Stat5-luciferase reporter, Ba/F3 cells with hTSLPR and hIL7Ra) (human TSLP [5]) [µg/mL] | IC50, inhibition of TSLP induced proliferation of Ba/F3-TSLPR-IL7Ra cells (CellTiter-Glo) (human TSLP [6]) [µg/mL] | also measured |
| --- | --- | --- | --- | --- | --- | --- |
| B1 | ~0.03 | ~0.7 | 0.0092 | – | – | – |
| B2 | ~0.04 | ~0.7 | 0.0129 | – | – | binding result (human IL-7): no binding; IC50 (TSLP-His): 0.379 µg/mL |
| B3 | ~0.05 | ~0.7 | 0.0182 | – | – | – |
| B4 | – | – | – | 0.0308 | 0.214 | EC50 (read off the curve) (human TSLP [4]): ~0.08 µg/mL |
| B5 | – | – | – | 0.0228 | 0.0304 | EC50 (read off the curve) (human TSLP [4]): ~0.07 µg/mL |
| B6 | ~0.05 | ~0.9 | 0.0169 | – | – | – |
| B7 | – | – | – | 0.0438 | 0.244 | EC50 (read off the curve) (human TSLP [4]): ~0.08 µg/mL |
| B8 | – | – | – | 0.0108 | 0.0394 | EC50 (read off the curve) (human TSLP [4]): ~0.06 µg/mL; IC50 (TSLP-His): 0.158 µg/mL |
| B9 | ~0.04 | ~0.7 | 0.0154 | – | – | – |
| B10 | – | – | – | 0.0245 | 0.129 | EC50 (read off the curve) (human TSLP [4]): ~0.08 µg/mL |
| B11 | ~0.04 | ~0.7 | 0.0114 | – | – | – |
| B12 | – | – | – | – | 0.0185 | EC50 (read off the curve) (cynomolgus monkey TSLP [7]): ~0.7 µg/mL; EC50 (read off the curve) (human TSLP [8]): ~0.07 µg/mL; IC50, inhibition of human TSLP-induced Stat5 activation (Stat5-luciferase reporter, Ba/F3 cells with hTSLPR and hIL7Ra) (human TSLP [9]): 0.00463 µg/mL; IC50 (TSLP-His): 0.351 µg/mL |
| B13 | – | – | – | – | – | EC50 (read off the curve) (human TSLP [10]): ~0.1 µg/mL; EC50 (read off the curve) (cynomolgus monkey TSLP [11]): ~0.3 µg/mL |
| B14 | – | – | – | 0.0183 | 0.0651 | EC50 (read off the curve) (human TSLP [10]): ~0.04 µg/mL; EC50 (read off the curve) (cynomolgus monkey TSLP [11]): ~0.3 µg/mL |
| B15 | – | – | – | 0.025 | 0.133 | EC50 (read off the curve) (human TSLP [10]): ~0.05 µg/mL |
| B16 | – | – | – | 0.0421 | 0.284 | EC50 (read off the curve) (human TSLP [10]): ~0.04 µg/mL; EC50 (read off the curve) (cynomolgus monkey TSLP [11]): ~0.3 µg/mL |
| B17 | – | – | – | 0.0215 | 0.0363 | EC50 (read off the curve) (cynomolgus monkey TSLP [7]): ~0.3 µg/mL; EC50 (read off the curve) (human TSLP [8]): ~0.1 µg/mL; IC50 (TSLP-His): 0.383 µg/mL |
| B18 | – | – | – | 0.0189 | 0.0422 | EC50 (read off the curve) (cynomolgus monkey TSLP [7]): ~0.2 µg/mL; EC50 (read off the curve) (human TSLP [8]): ~0.1 µg/mL; IC50 (TSLP-His): 0.428 µg/mL |
